# Data taken from IntAct's records for PubMed 26912900.
# B1: 26S proteasome regulatory subunit RPN1 (Saccharomyces cerevisiae), P38764 (parent)
# chain: MVDESDKKQQTIDEQSQISPEKQTPNKKDKKKEEEEQLSEEDAKLKTDLELLVERLKEDDSSLYEASLNALKESIKNSTSSMTAVPKPLKFLRPTYPDLCSIYDKWTDPNLKSSLADVLSILAMTYSENGKHDSLRYRLLSDVSDFEGWGHEYIRHLALEIGEVYNDQVEKDAEDETSSDGSKSDGSAATSGFEFSKEDTLRLCLDIVPYFLKHNGEEDAVDLLLEIESIDKLPQFVDENTFQRVCQYMVACVPLLPPPEDVAFLKTAYSIYLSQNELTDAIALAVRLGEEDMIRSVFDATSDPVMHKQLAYILAAQKTSFEYEGVQDIIGNGKLSEHFLYLAKELNLTGPKVPEDIYKSHLDNSKSVFSSAGLDSAQQNLASSFVNGFLNLGYCNDKLIVDNDNWVYKTKGDGMTSAVASIGSIYQWNLDGLQQLDKYLYVDEPEVKAGALLGIGISASGVHDGEVEPALLLLQDYVTNPDTKISSAAILGLGIAFAGSKNDEVLGLLLPIAASTDLPIETAAMASLALAHVFVGTCNGDITTSIMDNFLERTAIELKTDWVRFLALALGILYMGQGEQVDDVLETISAIEHPMTSAIEVLVGSCAYTGTGDVLLIQDLLHRLTPKNVKGEEDADEEETAEGQTNSISDFLGEQVNEPTKNEEAEIEVDEMEVDAEGEEVEVKAEITEKKNGESLEGEEIKSEEKKGKSSDKDATTDGKNDDEEEEKEAGIVDELAYAVLGIALIALGEDIGKEMSLRHFGHLMHYGNEHIRRMVPLAMGIVSVSDPQMKVFDTLTRFSHDADLEVSMNSIFAMGLCGAGTNNARLAQLLRQLASYYSREQDALFITRLAQGLLHLGKGTMTMDVFNDAHVLNKVTLASILTTAVGLVSPSFMLKHHQLFYMLNAGIRPKFILALNDEGEPIKVNVRVGQAVETVGQAGRPKKITGWITQSTPVLLNHGERAELETDEYISYTSHIEGVVILKKNPDYREEE
# partner: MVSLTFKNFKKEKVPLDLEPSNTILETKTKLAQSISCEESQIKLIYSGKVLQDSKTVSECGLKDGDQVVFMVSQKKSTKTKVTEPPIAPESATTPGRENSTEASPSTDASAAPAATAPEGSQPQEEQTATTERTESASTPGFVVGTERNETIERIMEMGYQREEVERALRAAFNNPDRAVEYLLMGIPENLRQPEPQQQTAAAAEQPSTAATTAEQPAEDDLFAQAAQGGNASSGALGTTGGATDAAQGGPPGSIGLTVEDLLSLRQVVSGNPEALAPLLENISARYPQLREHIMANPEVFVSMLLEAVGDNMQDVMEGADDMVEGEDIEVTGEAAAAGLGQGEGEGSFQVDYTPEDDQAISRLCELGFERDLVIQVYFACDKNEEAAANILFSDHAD
# Variants of: B1
# Conditions: with rad23_yeast RAD23, P32628
row,Variant,effect of a mutation on the interaction
1,D541A;D548R;E552R,disrupting interaction strength
